# Laboratory results: the supplement of paper PMC10724198
# ± gives the standard deviation of the averaged measurements.
# Test system: Saccharomyces cerevisiae
# Assay: protein stability index of tFT-peptide fusion (C-terminal peptide) (PSI (0-1 scale)); higher = more stable (slower turnover)
# Conditions: genetic background: das1 deletion; temperature: 30 C
# Experimental: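 MPS profiling in S. cerevisiae of the yeast C-terminome library: the last 12 aa of each annotated ORF are fused to the C-terminus of a sfGFP-mCherry timer, after a GGGS linker. Cells are FACS-sorted into 8 mCherry/sfGFP bins and deep-sequenced. PSI runs from 0 (unstable) to 1 (stable); wild type and das1Δ backgrounds, two technical replicates each.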
row,Sequence,protein stability index
1,AVIGVYGEGQFI [ATG33 C-terminal 12 aa],0.6986 ± 0.0067
2,AVNTLLWQEQYS [YDR042C C-terminal 12 aa],0.739 ± 0.017
3,AWSYLARQVLYY [YGR176W C-terminal 12 aa],0.6986 ± 0.0046
4,AYEFDGDKVIVG [RIP1 C-terminal 12 aa],0.704 ± 0.018
5,AYSLQEGSVVAI [SIF2 C-terminal 12 aa],0.7139 ± 0.0064
6,CDSEMFASSKDE [ERI1 C-terminal 12 aa],0.698 ± 0.0072
7,CFPDDIFEYAVE [GLG1 C-terminal 12 aa],0.768 ± 0.015
8,CGKCHSVYKVNA [RPS31 C-terminal 12 aa],0.70314 ± 0.00059
9,CGLDGKIVIYTI [ARC40 C-terminal 12 aa],0.6819 ± 0.0035
10,CKSNKKHKQRQG [RTC6 C-terminal 12 aa],0.701 ± 0.031
11,CKTLNYARPQSN [BNA1 C-terminal 12 aa],0.6906 ± 0.0025
12,CNNVLYIRELPN [SMX3 C-terminal 12 aa],0.689 ± 0.016
13,CPSVEEIANETE [GCV2 C-terminal 12 aa],0.696 ± 0.013
14,CVAGAHFESLLD [YNL144W-A C-terminal 12 aa],0.702 ± 0.0074
15,CVVGTLGSDLKS [YPR150W C-terminal 12 aa],0.7093 ± 0.0042
16,DAEGQENAASSE [RIM1 C-terminal 12 aa],0.67571 ± 0.00047
17,DATSTLSSQPLD [MSP1 C-terminal 12 aa],0.7244 ± 0.0059

# Same assay, conditions: genetic background: wild type; temperature: 30 C
row,Sequence,protein stability index
1,AAISFKEAARTD [HYP2 C-terminal 12 aa],0.725 ± 0.07
2,AAMLTSENAREI [RRP45 C-terminal 12 aa],0.676 ± 0.035
3,AARADRGANFRD [SPT16 C-terminal 12 aa],0.726 ± 0.012
4,AAVKLSQAKSKL [FOX2 C-terminal 12 aa],0.752 ± 0.014
5,ADDDIFVNGFLR [YHL002C-A C-terminal 12 aa],0.7 ± 0.023
6,ADMTKEFERESS [GLN1 C-terminal 12 aa],0.701 ± 0.038
7,AFKKAQAEKSKK [NOP12 C-terminal 12 aa],0.73 ± 0.085
8,AGAAWFFVKLLG [CCC1 C-terminal 12 aa],0.476 ± 0.045
9,AGHSNTLQVSTV [CDC19 C-terminal 12 aa],0.687 ± 0.014
10,AILREVQFEVFR [NTA1 C-terminal 12 aa],0.7068 ± 0.00076
11,AIRRGLTKKNEK [GDE1 C-terminal 12 aa],0.65687 ± 0.00059
12,AIYPVLSEFRKM [SPT15 C-terminal 12 aa],0.706 ± 0.074
13,AKEESSDSENET [CDC123 C-terminal 12 aa],0.703 ± 0.091
14,AKEWDLEDPKSM [TAF9 C-terminal 12 aa],0.726 ± 0.057
15,AKSEDISCVLII [YPL238C C-terminal 12 aa],0.646 ± 0.022
16,AKYALLEVLKVS [YOR102W C-terminal 12 aa],0.187 ± 0.017
17,AKYSKKKNNKNK [DEG1 C-terminal 12 aa],0.668 ± 0.021
18,ALCICCTMDMLF [YBR016W C-terminal 12 aa],0.645 ± 0.048
19,ALDAELDAYMKG [YRA2 C-terminal 12 aa],0.7 ± 0.0058
20,ALDAVDDAIILD [GET1 C-terminal 12 aa],0.659 ± 0.021
21,ALLDPSDTLNFM [RDR1 C-terminal 12 aa],0.704 ± 0.055
22,ALNDIAKASYIY [CTK3 C-terminal 12 aa],0.648 ± 0.016
23,ALNTYSSGFEIA [GID10 C-terminal 12 aa],0.676 ± 0.02
24,ALSADGIYTIAN [PAU5 C-terminal 12 aa],0.6966 ± 0.0031
25,ALVGIFVLAFFN [HPF1 C-terminal 12 aa],0.251 ± 0.0084
26,AMFNDIWKNANE [UPS3 C-terminal 12 aa],0.711 ± 0.015
27,ANCNTADCLEDH [COT1 C-terminal 12 aa],0.708 ± 0.012

row,Sequence,protein stability index
1,ANLRAYFGPGFT [BUD6 C-terminal 12 aa],0.691 ± 0.0094
2,AQLLAYLMHKSN [LPL1 C-terminal 12 aa],0.252 ± 0.013
3,ASFENETVKANV [RFC3 C-terminal 12 aa],0.704 ± 0.0078
4,ASKESSKEDVAN [MUM2 C-terminal 12 aa],0.661 ± 0.032
5,ASQAKNSIEDDV [GTR2 C-terminal 12 aa],0.689 ± 0.031
6,ASREREKRRQSE [VAN1 C-terminal 12 aa],0.76362 ± 0.00071
7,ATAREWTKKYAV [UBC4 C-terminal 12 aa],0.7122 ± 0.0016
8,ATCGSSTYFARK [MCO8 C-terminal 12 aa],0.746 ± 0.054
9,ATPQKRTGPARG [YER088C-A C-terminal 12 aa],0.66 ± 0.018
10,ATSILLWYSNYS [CNM1 C-terminal 12 aa],0.6973 ± 0.00096
11,AVIGVYGEGQFI [ATG33 C-terminal 12 aa],0.693 ± 0.049
12,AVNTLLWQEQYS [YDR042C C-terminal 12 aa],0.751 ± 0.13
13,AWSYLARQVLYY [YGR176W C-terminal 12 aa],0.688 ± 0.032
14,AYEFDGDKVIVG [RIP1 C-terminal 12 aa],0.6846 ± 0.0025
15,AYSLQEGSVVAI [SIF2 C-terminal 12 aa],0.696 ± 0.047
16,CDSEMFASSKDE [ERI1 C-terminal 12 aa],0.74 ± 0.053
17,CFPDDIFEYAVE [GLG1 C-terminal 12 aa],0.76 ± 0.0098
18,CGKCHSVYKVNA [RPS31 C-terminal 12 aa],0.624 ± 0.041
19,CGLDGKIVIYTI [ARC40 C-terminal 12 aa],0.6704 ± 0.0027
20,CKSNKKHKQRQG [RTC6 C-terminal 12 aa],0.601 ± 0.02
21,CKTLNYARPQSN [BNA1 C-terminal 12 aa],0.727 ± 0.031
22,CNNVLYIRELPN [SMX3 C-terminal 12 aa],0.6801 ± 0.0029
23,CPSVEEIANETE [GCV2 C-terminal 12 aa],0.653 ± 0.0098
24,CVAGAHFESLLD [YNL144W-A C-terminal 12 aa],0.744 ± 0.03
25,CVVGTLGSDLKS [YPR150W C-terminal 12 aa],0.697 ± 0.014
26,DAEGQENAASSE [RIM1 C-terminal 12 aa],0.67 ± 0.0069
27,DATSTLSSQPLD [MSP1 C-terminal 12 aa],0.695 ± 0.037
